{"source": "patent US20230395187A1", "target": "SARS-CoV-2 spike protein, delta (SARS-CoV-2) (UniProt P0DTC2)", "assay": "virus-free Luminex binding assay, spike on beads"}
{"substance": "Imdevimab (RGN87) (antibody)", "values": [{"measurement": "EC50", "result": 0.17, "unit": "µg/mL"}]}
